These results are taken from US20260193365A1 (GRANITE BIO, published 2026).

Numbering of substitutions follows the chain as printed.

Sequences and labels used below:
B1: DOC3-RHLXRKA (antibody, human IgG1, kappa, V domains shown)
VH: QVQLQESDPGLVKPSETLSLTCTVSGFSISRYDLSWIRQPPGKGLEWIGVIWTGGGTNYNSAFMSRLTISKDTSKNQVSLKLSSVTAADTAVYYCARENYYNRRGYFDVWGQGTMVTVSS
VL: EIVLTQSPATLSLSPGERATLSCSASSSVSYMHWFQQKPGQAPRLLIYLTSNLASGIPARFSGSGSGTDFTLTISSLEPEDFAVYYCQQRSGSPPTFGPGTKLDIKR
B2: DOC2 chim. (antibody, human IgG1, kappa, V domains shown)
VH: EVQLVESGGGLVKPGGSLKLSCVASGFTLSNYAMSWVRQSPEKRLEWVAEVSSSGIYIYYSDTVTGRFSISRDNAKNTLYLEMSSLRSEDTAIYYCARDRYAYAMDYWGHGTSVIVSS
VL: DIVMTQSPSSLAISVGQRVTLSCKSSQSLLNSYNQKNSLAWYQQKPGQSPKLLVYFASTRESGVPDRFIGSGSGTYFTLTITSVQAGDLADYFCQQHYSNPRTFGGGTRLEIKR
B3: DOC3 chim. (antibody, human IgG1, kappa, V domains shown)
VH: QVQLKESGPGLVAPSQSLSITCTVSGFSLTRYDLSWIRQPPGKGLQWLGVIWTGGGTNYNSAFMSRLSIRKDNSKSQVFLKMNSLQTDDTAIYYCVRENYYNRRGYFDVWGAGTTVTVSS
VL: QIVLTQSPAIMSTSPGEKVTITCSASSSVSYMHWFQQKPGTSPKLWIYLTSNLASGVPARFSGSGSGTSYSLTINRMEAEDAATYYCQQRSGSPPTFGTGTKLELRR
B4: DOC2-RHBXRKB (antibody, human IgG1, kappa, V domains shown)
VH: EVQLVESGGGVVQPGRSLRLSCAASGFTLSNYAMSWVRQAPGKGLEWVAEVSSSGIYIYYSDTVTGRFSISRDNSKNTLYLQMNSLRAEDTAVYYCARDRYAYAMDYWGQGTLVIVSS
VL: DIVMTQSPDSLAVSLGERATINCKSSQSLLNSYNQKNSLAWYQQKPGQPPKLLVYFASTRESGVPDRFSGSGSGTDFTLTISSLQAEDVAVYFCQQHYSNPRTFGGGTKLEIKR
notes: The number agrees with the antibody's name and was used
B5: DOC2-RHAXRKB (antibody, human IgG1, kappa, V domains shown)
VH: B4 VH with S69T, I115T
VL: B4 VL
B6: DOC2-RHBXRKA (antibody, human IgG1, kappa, V domains shown)
VH: B4 VH
VL: B4 VL with V54I, F93Y
B7: DOC2-RHAXRKA (antibody, human IgG1, kappa, V domains shown)
VH: B4 VH with S69T, I115T
VL: B4 VL with V54I, F93Y
notes: also called DOC2-reshaped
B8: DOC2-RHBXRKC (antibody, human IgG1, kappa, V domains shown)
VH: B4 VH
VL: B4 VL with S69I, D76Y
B9: DOC3-RH09XRKA (antibody, human IgG1, kappa, V domains shown)
VH: EVQLVESGGGLVQPGGSLRLSCAVSGFSLTRYDLSWVRQAPGKGLEWLGVIWTGGGTNYNSAFMSRFSISKDNSKNTVFLQMNSLRAEDTAVYYCARENYYNRRGYFDVWGQGTTVTVSS
VL: B1 VL
B10: DOC3-RH09XRKC (antibody, human IgG1, kappa, V domains shown)
VH: B9 VH
VL: B1 VL with E1Q, I57V
B11: DOC2-ChXRKA (antibody, human IgG1, kappa, V domains shown)
VH: B2 VH
VL: B4 VL with V54I, F93Y
B12: DOC3-RH03XRKA (antibody, human IgG1, kappa, V domains shown)
VH: B9 VH with F67L, S68T, K71R, V78L, F79Y, A96V
VL: B1 VL

The first assay addresses T1, human CCR2 (human, UniProt O18793 1-360 (rhesus entry)).
T1 construct: On primary human monocytes/PBMC and on human-CCR2 transfected CHO cells; also called C-C Motif Chemokine Receptor 2; CD192
T1 chain: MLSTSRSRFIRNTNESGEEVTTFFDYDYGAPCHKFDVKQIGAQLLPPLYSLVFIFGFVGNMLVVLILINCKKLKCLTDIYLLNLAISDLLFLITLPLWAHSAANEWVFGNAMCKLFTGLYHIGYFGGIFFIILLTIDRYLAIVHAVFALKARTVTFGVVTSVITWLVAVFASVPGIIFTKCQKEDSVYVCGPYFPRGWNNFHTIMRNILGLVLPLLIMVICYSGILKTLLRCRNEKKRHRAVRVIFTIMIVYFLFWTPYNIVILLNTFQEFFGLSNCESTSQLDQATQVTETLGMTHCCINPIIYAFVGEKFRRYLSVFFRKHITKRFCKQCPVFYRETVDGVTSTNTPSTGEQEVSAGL
The assay is described as follows: cell binding, human PBMCs.
Turning to B1, the binding result was “binds”.

The next assay addresses T1, human CCR2. Briefly: cell binding, human monocytes.
With B2, the binding result is listed as “binds”.

As to B3, the binding result was “binds”.

A further assay deals with T1, human CCR2. The assay is described as follows: cell binding, primary human monocytes.
Consider B4, for which the binding result is “binds”.

As to B5, the binding result is listed as “binds”.

Regarding B6, the binding result is given as “binds”.

Take B7: the binding result is “binds”.

In the case of B8, the binding result is “binds”.

Turning to B9, the binding result is given as “binds”.

Turning to B10, the binding result is given as “binds”.

The next assay deals with T2, Marmoset monkey (Callithrix jacchus) CCR2 (Marmoset monkey (Callithrix jacchus), UniProt O18793 1-360).
T2 construct: On primary marmoset monocytes (marmoset blood/PBMC); they may hold print errors; also called marmoset CCR2; marmoset CCR2b
T2 chain: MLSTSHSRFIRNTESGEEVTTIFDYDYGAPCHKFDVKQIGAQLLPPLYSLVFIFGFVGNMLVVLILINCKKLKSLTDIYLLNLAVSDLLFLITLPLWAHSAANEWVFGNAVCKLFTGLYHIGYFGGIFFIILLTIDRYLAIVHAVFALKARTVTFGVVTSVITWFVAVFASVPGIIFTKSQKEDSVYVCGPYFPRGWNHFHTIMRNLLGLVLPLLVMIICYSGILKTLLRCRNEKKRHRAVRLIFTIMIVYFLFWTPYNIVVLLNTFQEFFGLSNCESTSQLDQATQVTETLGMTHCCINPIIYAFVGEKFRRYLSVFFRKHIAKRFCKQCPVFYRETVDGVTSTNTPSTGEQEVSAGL
Briefly: cell binding, primary marmoset monocytes.
Take B11: the binding result is on record as “no binding”.

Consider B4, for which the binding result was “no binding”.

B5: the binding result is “no binding”.

Consider B6, for which the binding result is “no binding”.

As to B8, the binding result was “no binding”.

For B9, the binding result was “no binding”.

Take B10: the binding result is listed as “no binding”.

A further assay deals with T2, Marmoset monkey (Callithrix jacchus) …. Briefly: cell binding, primary marmoset monocytes (marmoset blood).
On to B1, for which the binding result is given as “no binding”.

B12: the binding result is listed as “no binding”.
